The assay addresses TolCΔ2–22 (signal sequence-less mature TolC, His-tagged) (E. coli) (UniProt P02930). Nature of the assay: SDS-PAGE of unheated samples.

Regarding “TolCΔ2–22 (signal sequence-less mature TolC, His-tagged) (from UniProt P02930 23-493) (natural protein)”, the stoichiometry N amounted to 3.

Values taken from article PMC2885749.
